Measured values as given in patent US20200385427.

T1: peptide 6 (Table 10)
T1 chain: RRRRXFDXXD

T2: Antp-PCP
T2 chain: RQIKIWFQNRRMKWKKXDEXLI

T3: cFΦR4-PCP (not fully specified)
T3 chain: FXRRRRQXDEXLI

T4: R9-PCP
T4 chain: RRRRRRRRRXDEXLI

T5: peptide 7 (Table 10)
T5 chain: RRRRRRRRRDXXDX

B1: Caspase-3, Human, recombinant protein (protein)
chain: SGISLDNSYKMDYPEMGLCIIINNKNFHKSTGMTSRSGTDVDAANLRETFRNLKYEVRNKNDLTREEIVELMRDVSKEDHSKRSSFVCVLLSHGEEGIIFGTNGPVDLKKITNFFRGDRCRSLTGKPKLFIIQACRGTELDCGIETDSGVDDDMACHKIPVEADFLYAYSTAPGYYSWRNSKDGSWFIQSLCAMLKQYADKLEFMHILTRVNRKVATEFESFSFDATFHAKKQIPCIVSMLTKELYFYH
B2: SHP2 (protein)
chain: AETTDKVKQGFWEEFETLQQQECKLLYSRKEGQRQENKNKNRYKNILPFDHTRVVLHDGDPNEPVSDYINANIIMPEFETKCNNSKPKKSYIATQGCLQNTVNDFWRMVFQENSRVIVMTTKEVERGKSKCVKYWPDEYALKEYGVMRVRNVKESAAHDYTLRELKLSKVGQGNTERTVWQYHFRTWPDHGVPSDPGGVLDFLEEVHHKQESIMDAGPVVVHCSAGIGRTGTFIVIDILIDIIREKGVDCDIDVPKTIQMVRSQRSGMVQTEAQYRFIYMAVQHYIETLQRRI
B3: VHR (protein)
chain: MSGSFELSVQDLNDLLSDGSGCYSLPSQPCNEVTPRIYVGNASVAQDIPKLQKLGITHVLNAAEGRSFMHVNTNANFYKDSGITYLGIKANDTQEFNLSAYFERAADFIDQALAQKNGRVLVHCREGYSRSPTLVIAYLMMRQKMDVKSALSIVRQNREIGPNDGFLAQLCQLNDRLAKEGKLKP
B4: TCPTP (protein)
chain: MPTTIEREFEELDTQRRWQPLYLEIRNESHDYPHRVAKFPENRNRNRYRDVSPYDHSRVKLQNAENDYINASLVDIEEAQRSYILTQGPLPNTCCHFWLMVWQQKTKAVVMLNRIVEKESVKCAQYWPTDDQEMLFKETGFSVKLLSEDVKSYYTVHLLQLENINSGETRTISHFHYTTWPDFGVPESPASFLNFLFKVRESGSLNPDHGPAVIHCSAGIGRSGTFSLVDTCLVLMEKGDDINIKQVLLNMRKYRMGLIQTPDQLRFSYMAIIEGAKCIKGDSSIQKRWKELSKEDLSPAFDHSPNKIMTEKYN
B5: PTPRC (protein)
chain: YKIYDLHKKRSCNLDEQQELVERDDEKQLMNVEPIHADILLETYKRKIADEGRLFLAEFQSIPRVFSKFPIKEARKPFNQNKNRYVDILPYDYNRVELSEINGDAGSNYINASYIDGFKEPRKYIAAQGPRDETVDDFWRMIWEQKATVIVMVTRCEEGNRNKCAEYWPSMEEGTRAFGDVVVKINQHKRCPDYIIQKLNIVNKKEKATGREVTHIQFTSWPDHGVPEDPHLLLKLRRRVNAFSNFFSGPIVVHCSAGVGRTGTYIGIDAMLEGLEAENKVDVYGYVVKLRRQRCLMVQVEAQYILIHQALVEYNQFGETEVNLSELHPYLHNMKKRDPPSEPSPLEAEFQRLPSYRSWRTQHIGNQEENKSKNRNSNVIPYDYNRVPLKHELEMSKESEHDSDESSDDDSDSEEPSKYINASFIMSYWKPEVMIAAQGPLKETIGDFWQMIFQRKVKVIVMLTELKHGDQEICAQYWGEGKQTYGDIEVDLKDTDKSSTYTLRVFELRHSKRKDSRTVYQYQYTNWSVEQLPAEPKELISMIQVVKQKLPQKNSSEGNKHHKSTPLLIHCRDGSQQTGIFCALLNLLESAETEEVVDIFQVVKALRKARPGMVSTFEQYQFLYDVIASTYPAQNGQVKKNNHQEDKIEFDNEVDKVKQDANCVNPLGAPEKLPEAKEQAEGSEPTSGTEGPEHSVNGPASPALNQGS
B6: PTP1B (protein)
chain: MEMEKEFEQIDKSGSWAAIYQDIRHEASDFPCRVAKLPKNKNRNRYRDVSPFDHSRIKLHQEDNDYINASLIKMEEAQRSYILTQGPLPNTCGHFWEMVWEQKSRGVVMLNRVMEKGSLKCAQYWPQKEEKEMIFEDTNLKLTLISEDIKSYYTVRQLELENLTTQETREILHFHYTTWPDFGVPESPASFLNFLFKVRESGSLSPEHGPVVVHCSAGIGRSGTFCLADTCLLLMDKRKDPSSVDIKKVLLEMRKFRMGLIQTADQLRFSYLAVIEGAKFIMGDSSVQDQWKELSHEDLEPPPEHIPPPPRPPKRILEPHN

Target: T1, peptide 6 (Table 10)

B1 was tested, and the “decrease of substrate activity relative to peptide 3” value was “decreased its activity by 53% and 72%, respectively, relative to peptide 3”.

Target: T2, Antp-PCP

First: B2
Second: B3
The kcat/KM (dephosphorylation of pCAP peptide) of the first is higher: 2210 M⁻¹ s⁻¹ for the first, 2030 M⁻¹ s⁻¹ for the second.

Compared with B4, B5 is higher in kcat/KM (dephosphorylation of pCAP peptide): 970 M⁻¹ s⁻¹ for the first, 22300 M⁻¹ s⁻¹ for the second.

For B6, the kcat/KM (dephosphorylation of pCAP peptide) was 17400 M⁻¹ s⁻¹.

Target: T3, cFΦR4-PCP

Going from B2 to B3, the kcat/KM (dephosphorylation of pCAP peptide) falls from 7400 M⁻¹ s⁻¹ to 2460 M⁻¹ s⁻¹.

Compared with B4, B5 is higher in kcat/KM (dephosphorylation of pCAP peptide): 2780 M⁻¹ s⁻¹ for the first, 35100 M⁻¹ s⁻¹ for the second.

For B6, the kcat/KM (dephosphorylation of pCAP peptide) was 37100 M⁻¹ s⁻¹.

Target: T4, R9-PCP

Compared with B2, B3 is higher in kcat/KM (dephosphorylation of pCAP peptide): 248 M⁻¹ s⁻¹ for the first, 6240 M⁻¹ s⁻¹ for the second.

Going from B4 to B5, the kcat/KM (dephosphorylation of pCAP peptide) rises from 457 M⁻¹ s⁻¹ to 2940 M⁻¹ s⁻¹.

Work on B6 yielded a kcat/KM (dephosphorylation of pCAP peptide) of 14700 M⁻¹ s⁻¹.

Target: T5, peptide 7 (Table 10)

In the case of B1, the “decrease of substrate activity relative to peptide 3” value is reported as “decreased its activity by 53% and 72%, respectively, relative to peptide 3”.
